IntAct's records for PubMed 16339905

B1: Nephrocystin-4 (Homo sapiens), O75161-1 (parent)
chain: MNDWHRIFTQNVLVPPHPQRARQPWKESTAFQCVLKWLDGPVIRQGVLEVLSEVECHLRVSFFDVTYRHFFGRTWKTTVKPTKRPPSRIVFNEPLYFHTSLNHPHIVAVVEVVAEGKKRDGSLQTLSCGFGILRIFSNQPDSPISASQDKRLRLYHGTPRALLHPLLQDPAEQNRHMTLIENCSLQYTLKPHPALEPAFHLLPENLLVSGLQQIPGLLPAHGESGDALRKPRLQKPITGHLDDLFFTLYPSLEKFEEELLELHVQDHFQEGCGPLDGGALEILERRLRVGVHNGLGFVQRPQVVVLVPEMDVALTRSASFSRKVVSSSKTSSGSQALVLRSRLRLPEMVGHPAFAVIFQLEYVFSSPAGVDGNAASVTSLSNLACMHMVRWAVWNPLLEADSGRVTLPLQGGIQPNPSHCLVYKVPSASMSSEEVKQVESGTLRFQFSLGSEEHLDAPTEPVSGPKVERRPSRKPPTSPSSPPAPVPRVLAAPQNSPVGPGLSISQLAASPRSPTQHCLARPTSQLPHGSQASPAQAQEFPLEAGISHLEADLSQTSLVLETSIAEQLQELPFTPLHAPIVVGTQTRSSAGQPSRASMVLLQSSGFPEILDANKQPAEAVSATEPVTFNPQKEESDCLQSNEMVLQFLAFSRVAQDCRGTSWPKTVYFTFQFYRFPPATTPRLQLVQLDEAGQPSSGALTHILVPVSRDGTFDAGSPGFQLRYMVGPGFLKPGERRCFARYLAVQTLQIDVWDGDSLLLIGSAAVQMKHLLRQGRPAVQASHELEVVATEYEQDNMVVSGDMLGFGRVKPIGVHSVVKGRLHLTLANVGHPCEQKVRGCSTLPPSRSRVISNDGASRFSGGSLLTTGSSRRKHVVQAQKLADVDSELAAMLLTHARQGKGPQDVSRESDATRRRKLERMRSVRLQEAGGDLGRRGTSVLAQQSVRTQHLRDLQVIAAYRERTKAESIASLLSLAITTEHTLHATLGVAEFFEFVLKNPHNTQHTVTVEIDNPELSVIVDSQEWRDFKGAAGLHTPVEEDMFHLRGSLAPQLYLRPHETAHVPFKFQSFSAGQLAMVQASPGLSNEKGMDAVSPWKSSAVPTKHAKVLFRASGGKPIAVLCLTVELQPHVVDQVFRFYHPELSFLKKAIRLPPWHTFPGAPVGMLGEDPPVHVRCSDPNVICETQNVGPGEPRDIFLKVASGPSPEIKDFFVIIYSDRWLATPTQTWQVYLHSLQRVDVSCVAGQLTRLSLVLRGTQTVRKVRAFTSHPQELKTDPKGVFVLPPRGVQDLHVGVRPLRAGSRFVHLNLVDVDCHQLVASWLVCLCCRQPLISKAFEIMLAAGEGKGVNKRITYTNPYPSRRTFHLHSDHPELLRFREDSFQVGGGETYTIGLQFAPSQRVGEEEILIYINDHEDKNEEAFCVKVIYQ
partner: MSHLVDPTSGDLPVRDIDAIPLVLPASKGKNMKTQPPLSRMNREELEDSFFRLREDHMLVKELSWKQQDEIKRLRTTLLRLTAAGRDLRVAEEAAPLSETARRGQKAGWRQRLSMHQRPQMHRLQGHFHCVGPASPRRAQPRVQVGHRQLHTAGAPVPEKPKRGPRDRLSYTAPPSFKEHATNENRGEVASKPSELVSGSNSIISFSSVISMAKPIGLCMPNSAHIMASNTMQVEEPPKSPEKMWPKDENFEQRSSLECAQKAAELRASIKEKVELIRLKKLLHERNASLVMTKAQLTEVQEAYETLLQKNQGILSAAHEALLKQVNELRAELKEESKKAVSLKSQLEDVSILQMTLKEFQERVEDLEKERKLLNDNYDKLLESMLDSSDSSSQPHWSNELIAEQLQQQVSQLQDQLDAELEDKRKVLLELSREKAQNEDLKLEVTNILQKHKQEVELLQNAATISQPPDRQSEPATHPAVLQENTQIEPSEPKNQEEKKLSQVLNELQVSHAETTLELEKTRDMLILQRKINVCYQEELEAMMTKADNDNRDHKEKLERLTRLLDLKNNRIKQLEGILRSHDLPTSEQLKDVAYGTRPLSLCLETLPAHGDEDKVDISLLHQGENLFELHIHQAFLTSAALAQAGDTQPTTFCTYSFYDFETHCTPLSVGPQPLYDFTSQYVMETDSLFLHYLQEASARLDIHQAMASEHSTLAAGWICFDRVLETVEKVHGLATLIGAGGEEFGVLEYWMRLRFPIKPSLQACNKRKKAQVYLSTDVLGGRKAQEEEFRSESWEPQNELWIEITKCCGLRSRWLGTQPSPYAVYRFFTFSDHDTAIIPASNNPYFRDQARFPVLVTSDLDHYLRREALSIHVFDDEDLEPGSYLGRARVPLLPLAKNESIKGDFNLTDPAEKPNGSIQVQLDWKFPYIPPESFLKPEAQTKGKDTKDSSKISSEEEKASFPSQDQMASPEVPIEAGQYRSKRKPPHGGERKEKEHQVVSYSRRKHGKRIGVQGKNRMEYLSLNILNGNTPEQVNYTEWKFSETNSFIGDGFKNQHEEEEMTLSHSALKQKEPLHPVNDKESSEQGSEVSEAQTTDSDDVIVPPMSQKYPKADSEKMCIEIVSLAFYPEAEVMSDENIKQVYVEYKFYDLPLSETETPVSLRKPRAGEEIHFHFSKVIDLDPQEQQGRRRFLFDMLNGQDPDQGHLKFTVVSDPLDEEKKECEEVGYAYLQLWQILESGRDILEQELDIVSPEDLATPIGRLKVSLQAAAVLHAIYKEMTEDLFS
B2: X-linked retinitis pigmentosa GTPase regulator-interacting protein 1 (Homo sapiens), Q96KN7-1 (parent)
chain: B1 partner
partner: B1 chain

Variants of: B1
Settings: with RPGRIP1, Q96KN7-1

effect of a mutation on the interaction	Variant
disrupting interaction	G754R

Variants of: B2
Settings: with NPHP4, O75161-1

effect of a mutation on the interaction	Variant
disrupting interaction	D876G
with no effect	R852Q
disrupting interaction	G746E

Variants of: B2
Settings: with NPHP4, O75161-1
Remark: another data set of the same source

effect of a mutation on the interaction	Variant
decreasing interaction	D876G
